Results as given in patent US20250171562A1 (ALK ABELL, published 2025).

B1: NIgG4E1A1(G4S)2 (Fc fusion)
chain 1: DVQLQESGGGLVQAGGSLRLSCLASGRTFTTTSGYNMGWFRQAPGKEREFVAGIKWVSGSNRAYAESVKGRFTISRDNAKNTVYLQMNSLKPEDTAVYYCAAATGQSYVPIREYEYVYWGQGTQVTVSGGGGSGGGGSGPPCPPCPAPEFLGGPSVFLFPPKPKDTLMISRTPEVTCVVVDVSQEDPEVQFNWYVDGVEVHNAKTKPREEQFNSTYRVVSVLTVLHQDWLNGKEYKCKVSNKGLPSSIEKTISKAKGQPREPQVYTLPPCQEEMTKNQVSLWCLVKGFYPSDIAVEWESNGQPENNYKTTPPVLDSDGSFFLYSRLTVDKSRWQEGNVFSCSVMHEALHNHYTQKSLSLSLGK
chain 2: EVQLLESGGGLVQPGGSLRLSCAASGFTFGNYDMAWVRQAPGKRPEWVSSIDTGGDITHYADSVKGRFTISRDNAKNTLYLQMNSLRPEDTAVYWCATDEEYALGPNEFDYYGQGTLVTVSSGGGGSGGGGSGPPCPPCPAPEFLGGPSVFLFPPKPKDTLMISRTPEVTCVVVDVSQEDPEVQFNWYVDGVEVHNAKTKPREEQFNSTYRVVSVLTVLHQDWLNGKEYKCKVSNKGLPSSIEKTISKAKGQPREPQVCTLPPSQEEMTKNQVSLSCAVKGFYPSDIAVEWESNGQPENNYKTTPPVLDSDGSFFLVSRLTVDKSRWQEGNVFSCSVMHEALHNHYTQKSLSLSLGK
B2: NIgG4E1A1(G4S)1 (Fc fusion)
chain 1: DVQLQESGGGLVQAGGSLRLSCLASGRTFTTTSGYNMGWFRQAPGKEREFVAGIKWVSGSNRAYAESVKGRFTISRDNAKNTVYLQMNSLKPEDTAVYYCAAATGQSYVPIREYEYVYWGQGTQVTVSGGGGSGPPCPPCPAPEFLGGPSVFLFPPKPKDTLMISRTPEVTCVVVDVSQEDPEVQFNWYVDGVEVHNAKTKPREEQFNSTYRVVSVLTVLHQDWLNGKEYKCKVSNKGLPSSIEKTISKAKGQPREPQVYTLPPCQEEMTKNQVSLWCLVKGFYPSDIAVEWESNGQPENNYKTTPPVLDSDGSFFLYSRLTVDKSRWQEGNVFSCSVMHEALHNHYTQKSLSLSLGK
chain 2: EVQLLESGGGLVQPGGSLRLSCAASGFTFGNYDMAWVRQAPGKRPEWVSSIDTGGDITHYADSVKGRFTISRDNAKNTLYLQMNSLRPEDTAVYWCATDEEYALGPNEFDYYGQGTLVTVSSGGGGSGPPCPPCPAPEFLGGPSVFLFPPKPKDTLMISRTPEVTCVVVDVSQEDPEVQFNWYVDGVEVHNAKTKPREEQFNSTYRVVSVLTVLHQDWLNGKEYKCKVSNKGLPSSIEKTISKAKGQPREPQVCTLPPSQEEMTKNQVSLSCAVKGFYPSDIAVEWESNGQPENNYKTTPPVLDSDGSFFLVSRLTVDKSRWQEGNVFSCSVMHEALHNHYTQKSLSLSLGK
B3: CIgG4D1A1(G4S)3 (Fc fusion)
chain 1: GPPCPPCPAPEFLGGPSVFLFPPKPKDTLMISRTPEVTCVVVDVSQEDPEVQFNWYVDGVEVHNAKTKPREEQFNSTYRVVSVLTVLHQDWLNGKEYKCKVSNKGLPSSIEKTISKAKGQPREPQVYTLPPCQEEMTKNQVSLWCLVKGFYPSDIAVEWESNGQPENNYKTTPPVLDSDGSFFLYSRLTVDKSRWQEGNVFSCSVMHEALHNHYTQKSLSLSLGKGGGGSGGGGSGGGGSDVQLQESGGGLVQAGGSLRLSCAASGLTFSRCDMGWFRQAPGKEREFVARISANGASTHYADFVKGRFTISRDNAKNTVYLQMNYLKPEDTAVYICAAARVPVTWQLYDYWGQGTQVTVS
chain 2: GPPCPPCPAPEFLGGPSVFLFPPKPKDTLMISRTPEVTCVVVDVSQEDPEVQFNWYVDGVEVHNAKTKPREEQFNSTYRVVSVLTVLHQDWLNGKEYKCKVSNKGLPSSIEKTISKAKGQPREPQVCTLPPSQEEMTKNQVSLSCAVKGFYPSDIAVEWESNGQPENNYKTTPPVLDSDGSFFLVSRLTVDKSRWQEGNVFSCSVMHEALHNHYTQKSLSLSLGKGGGGSGGGGSGGGGSEVQLLESGGGLVQPGGSLRLSCAASGFTFGNYDMAWVRQAPGKRPEWVSSIDTGGDITHYADSVKGRFTISRDNAKNTLYLQMNSLRPEDTAVYWCATDEEYALGPNEFDYYGQGTLVTVSS
B4: CIgG4D2A1(G4S)3 (Fc fusion)
chain 1: GPPCPPCPAPEFLGGPSVFLFPPKPKDTLMISRTPEVTCVVVDVSQEDPEVQFNWYVDGVEVHNAKTKPREEQFNSTYRVVSVLTVLHQDWLNGKEYKCKVSNKGLPSSIEKTISKAKGQPREPQVYTLPPCQEEMTKNQVSLWCLVKGFYPSDIAVEWESNGQPENNYKTTPPVLDSDGSFFLYSRLTVDKSRWQEGNVFSCSVMHEALHNHYTQKSLSLSLGKGGGGSGGGGSGGGGSDVQLQESGGGLVEAGGSLRLSCVASGRTFSGWSMGWFRQAPGKEREFVAAISWVGSWIGGTVYSNSVKGRFTISRDNARTTVYLQMNSLKPEDTAVYFCAAANSETPRIFASEYDYWGQGTQVTVS
chain 2: B3 chain 2
B5: CIgG4D2A1(RS) (Fc fusion)
chain 1: GPPCPPCPAPEFLGGPSVFLFPPKPKDTLMISRTPEVTCVVVDVSQEDPEVQFNWYVDGVEVHNAKTKPREEQFNSTYRVVSVLTVLHQDWLNGKEYKCKVSNKGLPSSIEKTISKAKGQPREPQVYTLPPCQEEMTKNQVSLWCLVKGFYPSDIAVEWESNGQPENNYKTTPPVLDSDGSFFLYSRLTVDKSRWQEGNVFSCSVMHEALHNHYTQKSLSLSLGKRSDVQLQESGGGLVEAGGSLRLSCVASGRTFSGWSMGWFRQAPGKEREFVAAISWVGSWIGGTVYSNSVKGRFTISRDNARTTVYLQMNSLKPEDTAVYFCAAANSETPRIFASEYDYWGQGTQVTVS
chain 2: GPPCPPCPAPEFLGGPSVFLFPPKPKDTLMISRTPEVTCVVVDVSQEDPEVQFNWYVDGVEVHNAKTKPREEQFNSTYRVVSVLTVLHQDWLNGKEYKCKVSNKGLPSSIEKTISKAKGQPREPQVCTLPPSQEEMTKNQVSLSCAVKGFYPSDIAVEWESNGQPENNYKTTPPVLDSDGSFFLVSRLTVDKSRWQEGNVFSCSVMHEALHNHYTQKSLSLSLGKRSEVQLLESGGGLVQPGGSLRLSCAASGFTFGNYDMAWVRQAPGKRPEWVSSIDTGGDITHYADSVKGRFTISRDNAKNTLYLQMNSLRPEDTAVYWCATDEEYALGPNEFDYYGQGTLVTVSS
B6: CIgG4D2A1(G4S)1 (Fc fusion)
chain 1: GPPCPPCPAPEFLGGPSVFLFPPKPKDTLMISRTPEVTCVVVDVSQEDPEVQFNWYVDGVEVHNAKTKPREEQFNSTYRVVSVLTVLHQDWLNGKEYKCKVSNKGLPSSIEKTISKAKGQPREPQVYTLPPCQEEMTKNQVSLWCLVKGFYPSDIAVEWESNGQPENNYKTTPPVLDSDGSFFLYSRLTVDKSRWQEGNVFSCSVMHEALHNHYTQKSLSLSLGKGGGGSDVQLQESGGGLVEAGGSLRLSCVASGRTFSGWSMGWFRQAPGKEREFVAAISWVGSWIGGTVYSNSVKGRFTISRDNARTTVYLQMNSLKPEDTAVYFCAAANSETPRIFASEYDYWGQGTQVTVS
chain 2: GPPCPPCPAPEFLGGPSVFLFPPKPKDTLMISRTPEVTCVVVDVSQEDPEVQFNWYVDGVEVHNAKTKPREEQFNSTYRVVSVLTVLHQDWLNGKEYKCKVSNKGLPSSIEKTISKAKGQPREPQVCTLPPSQEEMTKNQVSLSCAVKGFYPSDIAVEWESNGQPENNYKTTPPVLDSDGSFFLVSRLTVDKSRWQEGNVFSCSVMHEALHNHYTQKSLSLSLGKGGGGSEVQLLESGGGLVQPGGSLRLSCAASGFTFGNYDMAWVRQAPGKRPEWVSSIDTGGDITHYADSVKGRFTISRDNAKNTLYLQMNSLRPEDTAVYWCATDEEYALGPNEFDYYGQGTLVTVSS
B7: CIgG4D2A1(G4S)2 (Fc fusion)
chain 1: GPPCPPCPAPEFLGGPSVFLFPPKPKDTLMISRTPEVTCVVVDVSQEDPEVQFNWYVDGVEVHNAKTKPREEQFNSTYRVVSVLTVLHQDWLNGKEYKCKVSNKGLPSSIEKTISKAKGQPREPQVYTLPPCQEEMTKNQVSLWCLVKGFYPSDIAVEWESNGQPENNYKTTPPVLDSDGSFFLYSRLTVDKSRWQEGNVFSCSVMHEALHNHYTQKSLSLSLGKGGGGSGGGGSDVQLQESGGGLVEAGGSLRLSCVASGRTFSGWSMGWFRQAPGKEREFVAAISWVGSWIGGTVYSNSVKGRFTISRDNARTTVYLQMNSLKPEDTAVYFCAAANSETPRIFASEYDYWGQGTQVTVS
chain 2: GPPCPPCPAPEFLGGPSVFLFPPKPKDTLMISRTPEVTCVVVDVSQEDPEVQFNWYVDGVEVHNAKTKPREEQFNSTYRVVSVLTVLHQDWLNGKEYKCKVSNKGLPSSIEKTISKAKGQPREPQVCTLPPSQEEMTKNQVSLSCAVKGFYPSDIAVEWESNGQPENNYKTTPPVLDSDGSFFLVSRLTVDKSRWQEGNVFSCSVMHEALHNHYTQKSLSLSLGKGGGGSGGGGSEVQLLESGGGLVQPGGSLRLSCAASGFTFGNYDMAWVRQAPGKRPEWVSSIDTGGDITHYADSVKGRFTISRDNAKNTLYLQMNSLRPEDTAVYWCATDEEYALGPNEFDYYGQGTLVTVSS
B8: NIgG4E1A1(RS) (Fc fusion)
chain 1: DVQLQESGGGLVQAGGSLRLSCLASGRTFTTTSGYNMGWFRQAPGKEREFVAGIKWVSGSNRAYAESVKGRFTISRDNAKNTVYLQMNSLKPEDTAVYYCAAATGQSYVPIREYEYVYWGQGTQVTVSRSGPPCPPCPAPEFLGGPSVFLFPPKPKDTLMISRTPEVTCVVVDVSQEDPEVQFNWYVDGVEVHNAKTKPREEQFNSTYRVVSVLTVLHQDWLNGKEYKCKVSNKGLPSSIEKTISKAKGQPREPQVYTLPPCQEEMTKNQVSLWCLVKGFYPSDIAVEWESNGQPENNYKTTPPVLDSDGSFFLYSRLTVDKSRWQEGNVFSCSVMHEALHNHYTQKSLSLSLGK
chain 2: EVQLLESGGGLVQPGGSLRLSCAASGFTFGNYDMAWVRQAPGKRPEWVSSIDTGGDITHYADSVKGRFTISRDNAKNTLYLQMNSLRPEDTAVYWCATDEEYALGPNEFDYYGQGTLVTVSSRSGPPCPPCPAPEFLGGPSVFLFPPKPKDTLMISRTPEVTCVVVDVSQEDPEVQFNWYVDGVEVHNAKTKPREEQFNSTYRVVSVLTVLHQDWLNGKEYKCKVSNKGLPSSIEKTISKAKGQPREPQVCTLPPSQEEMTKNQVSLSCAVKGFYPSDIAVEWESNGQPENNYKTTPPVLDSDGSFFLVSRLTVDKSRWQEGNVFSCSVMHEALHNHYTQKSLSLSLGK

Biological target: T1, recombinant human IgE (human, UniProt P01854-1 1-428)
T1 construct: made in-house (ALK); preloaded on immobilised FcεRIα in the displacement ELISA
T1 sequence (P01854 other isoform, or with tags, fused parts or gaps): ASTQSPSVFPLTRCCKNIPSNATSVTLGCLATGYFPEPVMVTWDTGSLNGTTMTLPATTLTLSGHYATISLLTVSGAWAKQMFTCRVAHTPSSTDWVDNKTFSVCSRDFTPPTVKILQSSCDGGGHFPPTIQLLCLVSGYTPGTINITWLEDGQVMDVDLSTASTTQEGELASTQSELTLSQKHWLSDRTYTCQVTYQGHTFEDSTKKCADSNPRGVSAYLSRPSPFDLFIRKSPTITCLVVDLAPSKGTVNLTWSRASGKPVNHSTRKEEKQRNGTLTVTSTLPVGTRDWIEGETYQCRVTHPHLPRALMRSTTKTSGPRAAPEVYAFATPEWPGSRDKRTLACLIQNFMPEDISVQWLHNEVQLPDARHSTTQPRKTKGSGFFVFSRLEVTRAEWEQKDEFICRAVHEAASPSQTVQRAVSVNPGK
Assay: IgE-FcεRIα displacement ELISA
Procedure, shortened: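 Streptavidin-coated plates carried site-specifically biotinylated recombinant human FcεRIα, loaded with recombinant human IgE at 13 ng/ml. sdAbs in a pM–μM series were added for 1 h, and displaced IgE was washed off. Percent displacement was the signal reduction versus the no-sdAb control, giving EC50 and maximal effect.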

Row | Binder | Max effect [%] | EC50 [nM]
1 | B1 | > 95 | –
2 | B2 | > 95 | –
3 | B3 | > 95 | 14
4 | B4 | > 95 | 4.8
5 | B5 | 35 | –
6 | B6 | > 95 | 25
7 | B7 | > 95 | 7
8 | B8 | > 95 | –
